Columns and labels:
Assay in all cases: cryo-EM structure; genome-packed Douge virions purified from M. smegmatis lysate (PEG, CsCl gradient), vitrified at 4 °C; capsid, connector-vertex, tail tube, baseplate and central fiber reconstructed separately (2.18-4.26 Å) and joined in a composite map; the proteins stood in the assembled virion
[1] = biological target: tape measure protein (TMP), gp16 of mycobacteriophage Douge (mycobacteriophage Douge)
[2] = biological target: baseplate hub protein (BHP), gp18 of mycobacteriophage Douge (mycobacteriophage Douge)
[3] = biological target: terminator protein, gp12 of mycobacteriophage Douge (mycobacteriophage Douge)
[4] = biological target: capsid cement protein (CCP), gp113 of mycobacteriophage Douge (mycobacteriophage Douge)
[5] = biological target: central fiber protein (CFP), gp20 of mycobacteriophage Douge (mycobacteriophage Douge)
[6] = biological target: distal tail protein (DTP), gp17 of mycobacteriophage Douge (mycobacteriophage Douge)
[7] = biological target: tail tube protein (TTP), gp13 of mycobacteriophage Douge (mycobacteriophage Douge)
[8] = biological target: stopper protein, gp10 of mycobacteriophage Douge (mycobacteriophage Douge)
[9] = biological target: adaptor protein, gp9 of mycobacteriophage Douge (mycobacteriophage Douge)
[10] = biological target: portal protein, gp5 of mycobacteriophage Douge (mycobacteriophage Douge)

## tape measure protein (TMP), gp16 of mycobacteriophage Douge (natural protein)
[1]
  stoichiometry N: 3

## baseplate hub protein (BHP), gp18 of mycobacteriophage Douge (natural protein)
[2]
  stoichiometry N: 3

## terminator protein, gp12 of mycobacteriophage Douge (natural protein)
[3]
  stoichiometry N: 6

## capsid cement protein (CCP), gp113 of mycobacteriophage Douge (natural protein)
[4]
  stoichiometry N: 2

## central fiber protein (CFP), gp20 of mycobacteriophage Douge (natural protein)
[5]
  stoichiometry N: 3

## distal tail protein (DTP), gp17 of mycobacteriophage Douge (natural protein)
[6]
  stoichiometry N: 6

## tail tube protein (TTP), gp13 of mycobacteriophage Douge (natural protein)
[7]
  stoichiometry N: 6

## stopper protein, gp10 of mycobacteriophage Douge (natural protein)
[8]
  stoichiometry N: 6

## adaptor protein, gp9 of mycobacteriophage Douge (natural protein)
[9]
  stoichiometry N: 12

## portal protein, gp5 of mycobacteriophage Douge (natural protein)
[10]
  stoichiometry N: 12

— paper PMC13033339
